The record followed here is patent US5536822A, “γ-phosphate linked adenosine 5' triphosphate sepharose” (University of Virginia Alumni Patents Foundation, priority 1994, dated 1996).

Substrate in this data set: Nc1ncnc2c1ncn2[C@@H]1O[C@H](COP(=O)(O)OP(=O)(O)OP(=O)(O)O)[C@@H](O)[C@H]1O
Briefly: Inhibition constant of the ATP derivative / Km for ATP, p42^mapk assay. It counts as biochemical. The following applies: other: p42^mapk; pH 7.4. The text has this:
[γ-^32 P] ATP was synthesized according to the procedure set forth in Johnson et al., Advances in Cyclic Nucleotide Research, 10:135-167 (1979). The catalytic subunit of cyclic-AMP-dependent protein kinase was purchased from Promega. p60^c-arc was obtained from the Department of Microbiology, University of Virginia. Recombinant p42^mapk was purified as described in Haystead et al., (1992) FEBS Lett., 306:17-22. STE7 antibody was obtained from the University of Vancouver, Canada.
The 42-kDa MAP kinase (p42^mapk) and MAPKK were assayed as described previously (Haystead et al. (1992) FEBS. Lett., 306:17-22). The cyclic-A kinase assays (30 μl) included 1 μg cyclic-A kinase, 2 mM Kemptide, 50 mM Hepes, pH 7.4, 1 mM dithiothreitol, 200 μM ATP, 5 mM MgCl2. […]
In order to assess the effectiveness of adenosine 5'-(γ-4-aminophenyl)triphosphate as an affinity ligand for protein kinases, the inhibition constants (Ki) of the derivative were determined for four different protein kinases, namely, p42^mapk, cyclic-A kinase, MAPKK and p60^c-arc (Table 1). […] This also facilitated comparisons for the relative binding constants determined with other ATP analogs (Flockhart et al. (1984) Eur. J. Biochem., 140:289-295; Hoppe et al. (1972) Eur. J. Biochem., 80:369-372; Taylor et al. (1990) Peptides and Protein Phosphorylation (Kemp et al.) pp 2-32, CRC Press).

B1: p42^mapk (Mus musculus) (protein)
chain: MAAAAAAGPEMVRGQVFDVGPRYTNLSYIGEGAYGMVCSAYDNLNKVRVAIKKISPFEHQTYCQRTLREIKILLRFRHENIIGINDIIRAPTIEQMKDVYIVQDLMETDLYKLLKTQHLSNDHICYFLYQILRGLKYIHSANVLHRDLKPSNLLLNTTCDLKICDFGLARVADPDHDHTGFLTEYVATRWYRAPEIMLNSKGYTKSIDIWSVGCILAEMLSNRPIFPGKHYLDQLNHILGILGSPSQEDLNCIINLKARNYLLSLPHKNKVPWNRLFPNADSKALDLLDKMLTFNPHKRIEVEQALAHPYLEQYYDPSDEPIAEAPFKFDMELDDLPKEKLKELIFEETARFQPGYRS
notes: made in house
As usually defined, the Km is the concentration of substrate that gives half-maximal velocity. With B1, the Km came out at 7.5 ± 0.71 µM.
